Read-outs that look alike come from different tables or passages of the source.

For the substance “SIVmac239 Env (envelope glycoprotein, gp120): S204G (in SIVmac239 K180S)”, under “N-glycosylation at N202”, the expression_or_secretion result is on record as “no change” and the other result is recorded as “decreases”.

For the substance “SIVmac239 Env (envelope glycoprotein, gp120 V2 apex): T173I (in SIVmac239 K180S)”, where the note is “N-glycosylation at N171”, the expression_or_secretion result is on record as “no change” and the other result is “abolishes”.

Source of the values: PMC10833561.
